Tests used:
Assay in all cases: SPR; Biacore 8K, affinity determination of second-generation constructs; 30-100 RU of ABD035-containing constructs captured on immobilised HSA (CM5); 1-200 nM human sortilin injected 180 s at 30 µl/min, 25°C, PBST; 60 min dissociation; 1:1 Langmuir fit; apparent constants; n=3 technical replicates
[1] = biological target: A3-ABD (His6-A3-G4S-ABD035)
[2] = biological target: ABD-A3-(G4S)3-PGRNC6* (His6-ABD035-G4S-A3-(G4S)3-PGRNC6*) (human) (UniProt P28799)
[3] = biological target: ABD-A3-(G4S)3-NTC3 (His6-ABD035-G4S-A3-(G4S)3-NTC3)
[4] = biological target: ABD-A3-(G4S)3-PGRNC3 (His6-ABD035-G4S-A3-(G4S)3-PGRNC3) (human)

Sequence of human sortilin (R&D Systems, 3154-ST) (Q99523 78-755): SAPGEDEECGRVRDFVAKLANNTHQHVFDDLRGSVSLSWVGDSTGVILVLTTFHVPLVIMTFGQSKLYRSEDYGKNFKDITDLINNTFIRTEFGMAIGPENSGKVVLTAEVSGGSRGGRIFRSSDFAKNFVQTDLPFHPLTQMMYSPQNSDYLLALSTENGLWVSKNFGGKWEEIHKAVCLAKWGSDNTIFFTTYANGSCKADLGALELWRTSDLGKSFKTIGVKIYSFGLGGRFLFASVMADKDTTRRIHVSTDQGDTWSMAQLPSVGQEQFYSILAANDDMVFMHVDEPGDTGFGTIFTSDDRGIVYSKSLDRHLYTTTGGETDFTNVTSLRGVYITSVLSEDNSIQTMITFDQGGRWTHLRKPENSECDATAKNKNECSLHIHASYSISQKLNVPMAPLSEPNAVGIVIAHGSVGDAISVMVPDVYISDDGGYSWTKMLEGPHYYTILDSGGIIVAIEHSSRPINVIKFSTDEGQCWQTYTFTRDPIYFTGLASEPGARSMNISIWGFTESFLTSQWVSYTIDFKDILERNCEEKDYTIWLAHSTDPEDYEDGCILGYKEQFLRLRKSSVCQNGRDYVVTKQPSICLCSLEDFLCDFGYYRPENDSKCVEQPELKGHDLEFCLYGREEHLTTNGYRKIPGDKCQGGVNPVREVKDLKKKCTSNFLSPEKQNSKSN

Kd [1]: 70.4 nM
Kd [2]: 0.319 nM
Kd [3]: 0.303 nM
Kd [4]: 0.31 nM
Substance: human sortilin (R&D Systems, 3154-ST) (from UniProt Q99523 78-755) (receptor)
